# ± gives the half width of the 95% confidence interval.
# Tests used:
# [1] = folding stability dG unfold (combined trypsin and chymotrypsin); higher = more stable
# Outline: (§1)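 Only designs with AlphaFold2 dimer inter-PAE above 15 were retained; each was a mini-protein under 80 residues with no cysteine, in a PA-tagged cDNA display construct. After digestion with trypsin and chymotrypsin and sequencing, K50 was inferred by Bayesian fitting of counts, and unfolding free energy was derived per protease or combined against a sequence-predicted unfolded-state K50 and a shared folded-state K50.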
# [2] = folding stability dG unfold from trypsin proteolysis; higher = more stable
# Outline: as §1
# [3] = folding stability dG unfold from chymotrypsin proteolysis; higher = more stable
# Outline: as §1
Sequence,folding stability dG unfold [1] [kJ/mol],folding stability dG unfold [2] [kJ/mol],folding stability dG unfold [3] [kJ/mol]
SAGGSAMFYLLKVELPDGKVLEIRIEATPEEKEEFVEKIKSHPEVKSVELEPISKEEAEELGFEEISAGGSA [r15_39_TrMRF],12.9 ± 0.502,11 ± 0.502,13.7 ± 0.105
SAGGSAMGMRPVRREFTGSGMRITVEVVESTSIPTAEIRVLDPEGRLLRERRLPAEEVEREIARLLSAGGSA [r15_940_JUSTAS],6.47 ± 0.402,5.6 ± 0.289,6.61 ± 0.385
SAGGSAMIEIEIVKPNASPEEAEKLEKEVREKLLEEGVPEEVVKEVNIKVIVKPVKKDKNNNPILESAGGSA [r15_684_JUSTAS],3.39 ± 0.837,-0.899 ± 0.628,4.09 ± 0.795
SAGGSAMIEIKVEVNGKTYRITIEKNEDGTLTLTVYDEKTGKKTEIEIPLENLEELKKLNVKRIEISAGGSA [r15_629_TrROS_Hall],12.9 ± 0.502,7.46 ± 0.322,14.8 ± 0.151
SAGGSAMIKTSYDPNGKTIYTIPETGAVITVDPSTGKVTVEVDPESQANNPLPEEEVKKLAEEVLKSAGGSA [r15_735_JUSTAS],4.6 ± 0.18,2.01 ± 0.205,5.62 ± 0.0753
SAGGSAMIVIPVDPNDPAAEKTVAEAIAAGKDVIIRSPSGKYTFYKPDGSKKELSSEEEIKKAGLESAGGSA [r15_94_JUSTAS],0.12 ± 0.795,1.04 ± 0.36,-2.07 ± 3.22
SAGGSAMKAKEIKRLKLKDRPLVVIFLENPEGGYSVLVIPLENPEKVEELLEELVKEGLLDEITPESAGGSA [r15_575_TrMRF],6.66 ± 0.31,4.3 ± 0.13,8.08 ± 0.343
SAGGSAMKIEEIEKVELKKNENGELTAKIIIKDKKTNKYIEIEITVKPGMTLEEIKKLAEELLKKLSAGGSA [r15_181_TrROS_Hall],11.4 ± 0.586,14.3 ± 0.544,8.19 ± 0.314
SAGGSAMKITLKTKDGKEIEIEVEEKTNENGEKYLVLKIKDKKTNKEYTIVMSKEELEELLKKLLSSAGGSA [r15_92_TrROS_Hall],23.2 ± 0.711,18.1 ± 0.879,22.9 ± 0.46
SAGGSAMKLTFTDSKGRTIEITVEKKYLPNGEPYLIITIKYPDTDEEIVITMPTSNIDEILEKLLNSAGGSA [r15_92_JUSTAS],17.9 ± 1,17 ± 1.34,17.9 ± 0.46
SAGGSAMLDNLVPVGSVTVVERFPDGLLRVVNYTFWRDPESGAWYVSADVEVFPLLPEDPVLLEAGSAGGSA [r15_207_TrMRF],15.1 ± 0.46,9.37 ± 0.46,16.2 ± 0.201
SAGGSAMLENLPELDIKIKVEYKAEILPDGSLLIPAKIELEIGDKKFEFEAKILINPNGEITIEIGSAGGSA [r15_891_TrMRF],12.4 ± 1.3,12.4 ± 1.09,10.2 ± 1.3
SAGGSAMLPDEVTVKPVEMPVPPDLTLEELEQEVRERAGPGTSVEVSYDPATGVATVTVTDARPALSAGGSA [r15_749_JUSTAS],4.31 ± 0.167,-0.678 ± 0.146,6.04 ± 0.121
SAGGSAMLRVFEKEHPGPFSITVLAGPGLSEEEIEELAEKLAEKKIEIEKKKIELEKKGKKPIFKKSAGGSA [r15_704_JUSTAS],0.392 ± 1.8,1.37 ± 0.879,0.982 ± 1.8
SAGGSAMMTVTITIPKENLTKEEIKKALEEAGAKVVKVEEKDGKVTVTVEMTPEQVEKLKEALKKLSAGGSA [r15_161_TrROS_Hall],17.3 ± 1.88,16.7 ± 1.92,14.8 ± 1.17
SAGGSAMNPKLEALPEVEITEEKTEEYKTAENKKLLVKEYKSNAEPGKTYKVIYDPETGKVLSVEESAGGSA [r15_66_JUSTAS],3.08 ± 0.418,0.399 ± 0.247,4.61 ± 0.46
SAGGSAMPDDPLVLRANIPFVVVGPDGRPRLFRREILVPFASEEEAERFRRELEALGAEVEPVARASAGGSA [r15_117_TrMRF],8.07 ± 0.502,6.79 ± 0.213,9.08 ± 0.544
SAGGSAMPDLAAAPGVTRVEPYPDGLVEIHLDGSEEARDEIEERLRAAGDFEIYRLPDRDTLLVRASAGGSA [r15_554_TrMRF],-0.105 ± 1.21,-0.0343 ± 1.09,-0.692 ± 2.3

Sequence,folding stability dG unfold [1] [kJ/mol],folding stability dG unfold [2] [kJ/mol],folding stability dG unfold [3] [kJ/mol]
SAGGSAMPDMTAEELAAEVAKKLPPGEKVLIKIRNKNGETKTFELGEDISDLPADEVTEIEIEVLPSAGGSA [r15_50_TrROS_Hall],3.27 ± 0.226,1.04 ± 0.305,4.39 ± 0.151
SAGGSAMPLEELKKVTITLSFYNENGELVAEMTLEYDEETDVFTMTVKVRYNGKTYTVEMEFKLLPSAGGSA [r15_278_TrROS_Hall],21.9 ± 1.34,18.8 ± 2.34,22.1 ± 0.837
SAGGSAMPLLKPPKTIRLRILFKVPEPGKELDITEEAVRELFNPFGAKVRIYRDGDYVLIEVEFVVSAGGSA [r15_377_TrMRF],16.1 ± 0.628,16.9 ± 0.406,14.1 ± 0.372
SAGGSAMPVEFPSEGVVEAVNPKTGKVYLIRYETGDTKTRFVIFEPGTGEVRVIDEDTTFEEAVEDSAGGSA [r15_234_TrMRF],2.82 ± 0.368,3.35 ± 0.151,1.6 ± 0.669
SAGGSAMREIRVGDTVVRILSIDPSTGEVHIAVREDLPPETIEAARRALEEAGLRFRVEPVPEELLSAGGSA [r15_570_TrMRF],8.98 ± 0.222,7.22 ± 0.272,9.75 ± 0.117
SAGGSAMRIKVTLENGEEIEIEIEESMTEEEVKELAEELAKKLAEELGIKEVKVEVEEVELPEEEESAGGSA [r15_33_TrROS_Hall],10.6 ± 0.46,7.02 ± 0.46,12.4 ± 0.226
SAGGSAMRPLELENPNGREITIWYNPGEGHFQVEIERYEPPPNGKKKPQRHTFMVNSPEDLLDFIKSAGGSA [r15_31_TrROS],6.89 ± 0.795,6.57 ± 0.192,6.67 ± 0.628
SAGGSAMTITIKIENEDVTIPSSKSKEEILKAIKENPDVPVTVTLPDGTPVTLSPEELEKLIKEEKSAGGSA [r15_36_JUSTAS],4.66 ± 0.46,4.25 ± 0.134,5.13 ± 0.092
SAGGSAMTIYIKNKDGYIIKIEITKIEEIGPNYIKIKMKMEIINKNGEKKEIELELIFKVKNPEELSAGGSA [r15_1035_TrROS_Hall],15.9 ± 1.17,10.6 ± 1.38,16.7 ± 0.414
SAGGSAMTKVTVTFDPVTGTYTIKTTDSKGPSEYPLPKSFLEKTPLSEVAKKLNLNISEFTIEPNPSAGGSA [r15_801_JUSTAS],4.78 ± 0.385,3.22 ± 0.184,5.24 ± 0.414
SAGGSAMTLEDLKDEFVVITLPDGTVVKAKVEEVDTKGPVLTILVGGKPILIPADAPVKIEIEPPKSAGGSA [r15_355_JUSTAS],6.39 ± 0.18,7.27 ± 0.264,5.69 ± 0.138
SAGGSAMTPEEIRNMSLEEILKLIKEKLEKGEKVEIEITLPDGRKLRITFERLPNGEIKITIEEVDSAGGSA [r15_857_TrROS_Hall],19.7 ± 1.17,14.8 ± 0.837,21.1 ± 1.34
SAGGSAMTPVTLEITSEEELEAKIEELAPPGRTVTINVTSTTEKTRVEDDVTRDYTVVTANVTFPPSAGGSA [r15_95_JUSTAS],1.67 ± 0.502,0.758 ± 0.418,2.4 ± 0.167
SAGGSAMTVTLIVGDKPITIPLTASLSDIKAALEEHPDVPVYIILPNGKRIEMKVSDLIKMMEKAGSAGGSA [r15_36_TrMRF],13.2 ± 0.418,12.5 ± 0.243,14 ± 0.414
SAGGSAMVKTADGKEVKVEKVIPLEEMSLEELKALAEKNNKPILIVDKKTKKVIVLTKEELEKLLKSAGGSA [r15_904_TrROS_Hall],5.56 ± 0.92,3.59 ± 0.276,7.26 ± 0.297
SAGGSAMVLVRIKLKHPEREEVIEVPAGELLEILEHPELNEHWEIVEIEAREVPPEFVEPEELEEESAGGSA [r15_460_TrMRF],3.72 ± 0.544,3.56 ± 0.364,3.75 ± 0.753
SAGGSAMVRIEVELENGEKLEIEIEVPEEMTEEELLEKAKELAKELAEKLGIPEAKVKVVKIEVVPSAGGSA [r15_463_TrROS_Hall],16.4 ± 0.962,17 ± 0.669,12.2 ± 0.92

# From the supplement of paper PMC12764529
